According to the supplement of paper PMC12042874:
± gives the uncertainty stated by the source.

Test: amyloid nucleation score (Sup35N fusion, yeast selection) (log enrichment); library NNK3; higher = more nucleation; inactive = no reads after selection
Procedure, shortened: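 Random libraries were run with three technical output replicates. In each, psi-negative yeast expressing Sup35N fused to peptides of 20 random codons were induced 24 hours with 100 μM copper sulfate and grown 7 days at 30°C on medium lacking adenine and uracil, and input and output plasmid inserts were Illumina-sequenced. The nucleation score is the DiMSum log enrichment of output over input reads, centred on the mode score of non-aggregating sequences, and sequences under 100 input reads were excluded.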

Row | Substance | amyloid nucleation score
1 | TVSGLMVFVMHNGYS | 1.45 ± 0.084
2 | TVVIVPNWPVCRGHDFGERC | inactive
3 | TWDWGCKVGFRKGKKV | inactive
4 | TWNMFDGSVRHFSIWFSARS | inactive
5 | TWQEVMNVQRTS | inactive
6 | TWQVFSASVTVSLSYTSK | inactive
7 | TWRNLILRFGCGGFSKTTFK | inactive
8 | TWVTAGYCVNIYRTRSWMK | inactive
9 | TWVWGKFFGFLNSDISDVRH | inactive
10 | TWWFK | -0.234 ± 0.28
11 | TWYVLSNDNSCVYTGPTCQ | inactive
12 | TYFHIRCVV | inactive
13 | TYFTFSTWLRMYSGYSLVQV | inactive
14 | TYPRLNVHLLPLDFILYPH | inactive
15 | TYSNMCVSDVLCLTLT | 2.38 ± 0.048
16 | TYYSLVF | inactive
17 | VAADITSEA | inactive
18 | VAAFVNRARNATFVLALYCY | inactive
19 | VAFSFYFNSILVSVTRIVGS | 0.773 ± 0.15
20 | VAPLANHKASRDSYAYVSGS | inactive
21 | VCEQYFGRCNLRNKFCIWTL | inactive
22 | VCGIVIRGKVPKDKQYNMGE | inactive
23 | VCHGRSNHA | inactive

Row | Substance | amyloid nucleation score
24 | VCLDHHGVGFYVRSSSCSS | inactive
25 | VCLHDRLGVHVGQIRLGYRC | inactive
26 | VCLLSS | inactive
27 | VCMFEFMDKFWNFVVTAEQC | inactive
28 | VCRGQRISACQSRSVCGCWH | inactive
29 | VCSLVGKKRPHGSTSI | inactive
30 | VCVRYLFLFFSLIFYSGT | inactive
31 | VCWMSVRDNNNGHFLIYSSD | inactive
32 | VCYLFWDVWVFLGEVTANT | inactive
33 | VDFYAQ | inactive
34 | VDGATFFISWKIMARDSYRY | inactive
35 | VDGSVNMRALKCINNCVL | inactive
36 | VDMRSDDLIMQFWQLLSDDV | inactive
37 | VDRFRSQNKFVSNGMSLIRK | inactive
38 | VDVDPVSSD | inactive
39 | VEAHLLL | 0.01 ± 0.87
40 | VEGATWHTWSCVNHVVVKGF | inactive
41 | VEVMSGDEMWCLWLEFPSFE | inactive
42 | VEYNWSLFFNPRDFRGARDL | 0.505 ± 0.27
43 | VFEHVGWNPHVRYTVNR | inactive
44 | VFFVQCNHWNGMVNVFAM | 2.9 ± 0.057
45 | VFFYSDHVLCVYFVSLYSFS | 0.386 ± 0.42
46 | VFGET | inactive

Row | Substance | amyloid nucleation score
47 | VFGMKSRDIRIS | inactive
48 | VFGRLFIQMPKLTINQGKFH | 1.83 ± 0.089
49 | VFGRWCFLETCMMHFTFSRY | 0.865 ± 0.22
50 | VFHHIILRFN | inactive
51 | VFISLVLSDLRSFARVVLGG | inactive
52 | VFMCILDWRVNSHMCLKLFH | inactive
53 | VFNWYEVVFTFWCNMTANGM | 1.49 ± 0.069
54 | VFSDGLFVMTAAVYQYT | inactive
55 | VFSDTRCVCRKRSSVFKIVS | inactive
56 | VFSFLYIRNV | 1.55 ± 0.087
57 | VFTFRWHVWRDWLMSEHCDK | -0.296 ± 0.55
58 | VFYELAYFSNNQTDQWVLD | inactive
59 | VFYMRSETKLFL | -0.391 ± 0.8
60 | VGCRMPVACRTWRDKYALAR | inactive
61 | VGFPPSSTSRCR | inactive
62 | VGGGSFCFKHRLNGGTDGHV | 1.11 ± 0.13
63 | VGGLSSDPTADISFVVVFQD | 0.089 ± 0.71
64 | VGHERTVSLQHCGRRLRWCW | inactive
65 | VGIKTFGESGMYQVCSQVSC | inactive
66 | VGLAVVSLLSNRRNEDELCF | inactive
67 | VGQFVRGLVKLCNGMYYWWL | inactive
68 | VGSAGVSVFVWRVCRFCEGN | -0.434 ± 1.1
69 | VGSCIVKMIDFASTKGRGLI | inactive

Row | Substance | amyloid nucleation score
70 | VGSIYDSHNLPMSGHSDWNG | inactive
71 | VGSYVGRAVVEGYNCRVDTG | inactive
72 | VGTFWGFTIPSWYSVVVEVC | inactive
73 | VGYFV | inactive
74 | VGYGFIC | inactive
75 | VGYVWIDRYVWRYGLC | inactive
76 | VHFCWNADVSLHITLVGINS | inactive
77 | VHFYWS | inactive
78 | VHHLLELEQVHNKDGTF | inactive
79 | VHICKWVM | inactive
80 | VHKYSVDFGKGW | inactive
81 | VHLWGGRGHQLVWVHVRWGV | inactive
82 | VHREVGLDFYDNVTCTMFHI | inactive
83 | VHSIYSTNFVLVFIPQSSVN | 1.9 ± 0.075
84 | VIANVKIMTFFMAFSAVHTM | 1.48 ± 0.13
85 | VIAVRYYRLLDRMNVSGSVF | inactive
86 | VIFNHVLACADYGVHKVVDL | inactive
87 | VIIIEWV | inactive
88 | VITTVTTWGLRAGDVMRRTR | 1.11 ± 0.17
89 | VIYHPRFSRFLCEDWHDTCS | inactive
90 | VKCVYERRDGRLWLMILAMG | -0.481 ± 0.52
91 | VKDNFRFSLNRPMKRHVVWA | inactive
92 | VKFMMPRVDIWFKDGVRRYT | inactive

Row | Substance | amyloid nucleation score
93 | VKGGRLISLNRVLFLEDPVG | inactive
94 | VKISPNAWALQLR | inactive
95 | VKSVLFDGKL | inactive
96 | VLAMIVRHRKYKIDFIFMLD | inactive
97 | VLARLQLHFCSMTSDRYGLM | 1.04 ± 0.11
98 | VLCLLGSSVSS | inactive
99 | VLDVFKGIW | inactive
100 | VLDVVGKKFMRVSWQDGMPG | 1.13 ± 0.18
101 | VLFNSPTRGVHLLQTGSRQS | inactive
102 | VLGDMVYGGHAL | inactive
103 | VLGILYSTE | inactive
104 | VLKSIGV | inactive
105 | VLLCYNIVKPYNVSC | inactive
106 | VLLDMFRNFVWNSRVVFNGS | inactive
107 | VLLFYLKVTRASTVGVLSSS | inactive
108 | VLLGTSECHSHKILQGKSAV | inactive
109 | VLLKALVIFDY | inactive
110 | VLNSRTTPFI | inactive
111 | VLRETLR | inactive
112 | VLRKLYLSPDSGVNYCGDPV | inactive
113 | VLSRGDMATFTTVMMRRDAH | inactive
114 | VLVAHMRGEPGVANEWPLFQ | inactive
115 | VLVCTLVTSLTDAKFRKYFS | 0.813 ± 0.2

Row | Substance | amyloid nucleation score
116 | VLVEVEIYLILFIVYAW | inactive
117 | VLVGDDCDRTVANVQ | inactive
118 | VLVNHGFYW | inactive
119 | VLYVIRNYSGDG | 1.62 ± 0.096
120 | VMCLRRMSFQCMQSQMEALA | inactive
121 | VMCVFLLYI | 1.08 ± 0.11
122 | VMFLFGYNKVFKLSICWIGS | inactive
123 | VMLCHFDMYF | 1.45 ± 0.092
124 | VMMYFQFMPLKPSRD | 1.25 ± 0.12
125 | VMTIGTRV | inactive
126 | VMWEPFAYLFISSWRYVSLK | inactive
127 | VNGTLGFIGRETLYGTTRLT | inactive
128 | VNHVIQNLVSNRSTWGICCT | inactive
129 | VNIAETFSRHDPSHLWSYKS | inactive
130 | VNIWLPKTPLQLKLNLPSSM | -0.829 ± 1.1
131 | VNKNVMWHDNNKFFHPFRAI | 1.6 ± 0.082
132 | VNLHLTVEQLSMLYRTNANV | 1.07 ± 0.14
133 | VNNKHVVWCSVHGGSSR | inactive
134 | VNRKLWGT | inactive
135 | VNVMWKPLGLHIVPMFAFGK | 1.13 ± 0.16
136 | VNVNSKYNVFLLMCRGVEVI | inactive
137 | VPDRCLD | inactive
138 | VPEVG | inactive

Row | Substance | amyloid nucleation score
139 | VPGLHLSNPTAELDMQI | inactive
140 | VPGSSNVTCLYEGLSSYNTR | inactive
141 | VPQNVGVLWSRRQEAVVLVS | inactive
142 | VQSTVVQVGDWY | inactive
143 | VQTWWLNMCLLPRKSTYTHL | inactive
144 | VQWAEVAEMKGWGVANAWW | inactive
145 | VRGQFSSSVLGRCLGWAWTR | inactive
146 | VRHGSMTDCYFLHTLDRREC | inactive
147 | VRISHYA | inactive
148 | VRIWLNVYGVVSLGGRRLLV | inactive
149 | VRKPECSVVWVNQCWVQPPY | 2.15 ± 0.062
150 | VRLVAMCWGHLDKNRALRRG | inactive
151 | VRNVKSNANCCFN | inactive
152 | VRQKALRNPQL | inactive
153 | VRVMNGTRTSCLVR | -0.834 ± 1
154 | VRVSLDRTGYKSSCHVVSRG | inactive
155 | VRVVVISPGRSCRVNPSDSP | inactive
156 | VRWYCS | inactive
157 | VRYRVIHMDTFVS | 0.933 ± 0.16
158 | VSCDEMHKINFYLKANVVLV | inactive
159 | VSFMFFACDTFFSHAVIRTR | inactive
